Reference: IntAct's records for PubMed 16810321

B1: bZIP transcription factor 53 (Arabidopsis thaliana (Mouse-ear cress)), Q9LZP8 (parent)
chain: MGSLQMQTSPESDNDPRYATVTDERKRKRMISNRESARRSRMRKQKQLGDLINEVTLLKNDNAKITEQVDEASKKYIEMESKNNVLRAQASELTDRLRSLNSVLEMVEEISGQALDIPEIPESMQNPWQMPCPMQPIRASADMFDC
partner: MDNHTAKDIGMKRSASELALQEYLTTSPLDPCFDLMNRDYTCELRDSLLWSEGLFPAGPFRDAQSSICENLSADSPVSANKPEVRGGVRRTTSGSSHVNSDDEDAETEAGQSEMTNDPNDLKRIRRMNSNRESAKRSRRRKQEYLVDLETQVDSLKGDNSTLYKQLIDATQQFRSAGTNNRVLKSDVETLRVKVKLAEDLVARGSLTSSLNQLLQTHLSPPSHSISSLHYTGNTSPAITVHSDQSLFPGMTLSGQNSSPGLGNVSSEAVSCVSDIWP
B2: bZIP transcription factor 53 (Arabidopsis thaliana (Mouse-ear cress)), Q9LZP8 (parent)
chain: B1 chain
partner: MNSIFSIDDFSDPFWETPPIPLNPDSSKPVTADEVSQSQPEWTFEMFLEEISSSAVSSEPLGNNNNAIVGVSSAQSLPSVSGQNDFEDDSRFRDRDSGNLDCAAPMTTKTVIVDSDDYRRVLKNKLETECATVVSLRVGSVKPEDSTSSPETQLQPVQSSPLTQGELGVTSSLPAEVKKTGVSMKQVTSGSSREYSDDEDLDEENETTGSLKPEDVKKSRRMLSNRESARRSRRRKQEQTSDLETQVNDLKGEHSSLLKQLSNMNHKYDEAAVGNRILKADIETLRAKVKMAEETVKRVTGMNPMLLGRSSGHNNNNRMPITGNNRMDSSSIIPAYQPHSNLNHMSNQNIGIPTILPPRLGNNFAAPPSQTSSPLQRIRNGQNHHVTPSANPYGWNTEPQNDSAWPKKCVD

Variants of: B1
Settings: with bzip9_arath BZIP9, Q9FUD3

Variant	effect of a mutation on the interaction
MGSLQMQTSPESDNDPRYATVTDERKRKRMISNRESARRSRMRKQKQLGDLINEVTLLKNDNAKITEQVDEPSKKYIEMESKNNVLRAQASELTDRLRSLNSVLEMVEEISGQALDIPEIPESMQNPWQMPCPMQPIRASADMFDC [A72P]	disrupting interaction
MGSLQMQTSPESDNDPRYATVTDERKRKRMISNRESARRSRMRKQKQLGDPINEVTLLKNDNAKITEQVDEASKKYIEMESKNNVLRAQASELTDRLRSLNSVLEMVEEISGQALDIPEIPESMQNPWQMPCPMQPIRASADMFDC [L51P]	disrupting interaction

Variants of: B2
Settings: with bzp10_arath BZIP10, O22763

Variant	effect of a mutation on the interaction
MGSLQMQTSPESDNDPRYATVTDERKRKRMISNRESARRSRMRKQKQLGDPINEVTLLKNDNAKITEQVDEASKKYIEMESKNNVLRAQASELTDRLRSLNSVLEMVEEISGQALDIPEIPESMQNPWQMPCPMQPIRASADMFDC [L51P]	disrupting interaction
MGSLQMQTSPESDNDPRYATVTDERKRKRMISNRESARRSRMRKQKQLGDLINEVTLLKNDNAKITEQVDEPSKKYIEMESKNNVLRAQASELTDRLRSLNSVLEMVEEISGQALDIPEIPESMQNPWQMPCPMQPIRASADMFDC [A72P]	disrupting interaction
